Experimental data: US6602854B1, “Branched multimeric Apo A-I agonist compounds” (priority 1997, dated 2003)
Where two headings read alike, the source gives them in different places.

Tests used:
[1] = Pharmacokinetics in mice (radiolabeled peptide, intraperitoneal); assay type: in vivo; details: for HALF-LIFE: 2.5 mg/kg intraperitoneal
Description: In each experiment, 2.5 mg/kg radiolabeled peptide was injected intraperitoneally into mice which were fed normal mouse chow or the atherogenic Thomas-Harcroft modified diet (resulting in severely elevated VLDL and IDL cholesterol). Blood samples were taken at multiple time intervals for assessment of radioactivity in plasma.

[2] = test system: HDL in human plasma; details: for Radioactivity in 300 μl: 50 μl value multiplied by 6
Description: Human plasma (2 ml) was incubated with 20, 40, 60, 80, and 100 μg of ^14C-labeled peptide peptide 4 for 2 hr. at 37° C. The lipoproteins were separated by adjusting the density to 1.21 g/ml and centrifugation in TLA 100.3 rotor at 100,000 rpm (300,000 g) for 36 hr. at 4° C. The top 900 μl (in 300 μl fractions) was taken for the analysis. 50 μl from each 300 μl fraction was counted for radioactivity and 200 μl from each fraction was analyzed by FPLC (Superose 6/Superose 12 combination column).

PVLDLFRELLNELLEALKQKLK [peptide 4]
maximum serum concentration reached ([1]; ApoE knockout mice): ^5The maximum serum concentration reached was 17.4% injected % injected cpm
time of maximum serum concentration following injection ([1]; ApoE knockout mice): cpm at 1.46 hours following injection. r^2 = 0.973.
HALF-LIFE ([1]; ApoE knockout mice): 14.2^5 hours
maximum serum concentration reached ([1]; C57BL/6 mice, normal diet): ^1The maximum serum concentration reached was 25.7% injected % injected cpm
time of maximum serum concentration following injection ([1]; C57BL/6 mice, normal diet): cpm at 1.9 hours following injection. r^2 = 0.960.
HALF-LIFE ([1]; C57BL/6 mice, normal diet): 5.72^1 hours
time of maximum serum concentration following injection ([1]; C57Bl/6 mice, high fat diet): cpm at 2.98 hours following injection. r^2 = 0.973.
HALF-LIFE ([1]; C57Bl/6 mice, high fat diet): 5.98^2 hours
association with plasma components in mice (in words) ([1]; mice, intraperitoneal): associated with the HDL component
time the peptide remained stable in the circulation ([1]; mice, intraperitoneal): at least 6 hours
Radioactivity in 50 μl ([2]; 20 μg peptide in 2 ml human plasma, Fraction No. 1): 1407 cpm
Recovery ([2]; 20 μg peptide, Fraction No. 1): 71.6%
Radioactivity in 300 μl ([2]; 20 μg peptide, Fraction No. 1): 8442 cpm
Radioactivity in 50 μl ([2]; 20 μg peptide, Fraction No. 2): 405 cpm
Recovery ([2]; 20 μg peptide, Fraction No. 2): 20.6%
Radioactivity in 300 μl ([2]; 20 μg peptide, Fraction No. 2): 2430 cpm
Radioactivity in 50 μl ([2]; 20 μg peptide, Fraction No. 3): 152 cpm
Recovery ([2]; 20 μg peptide, Fraction No. 3): 7.7%
Radioactivity in 300 μl ([2]; 20 μg peptide, Fraction No. 3): 912 cpm
Radioactivity in 50 μl ([2]; 40 μg peptide, Fraction No. 1): 2538 cpm
Recovery ([2]; 40 μg peptide, Fraction No. 1): 70.4%
Radioactivity in 300 μl ([2]; 40 μg peptide, Fraction No. 1): 15228 cpm
Radioactivity in 50 μl ([2]; 40 μg peptide, Fraction No. 2): 721 cpm
Recovery ([2]; 40 μg peptide, Fraction No. 2): 20%
Radioactivity in 300 μl ([2]; 40 μg peptide, Fraction No. 2): 4326 cpm
Radioactivity in 50 μl ([2]; 40 μg peptide, Fraction No. 3): 347 cpm
Recovery ([2]; 40 μg peptide, Fraction No. 3): 9.6%
Radioactivity in 300 μl ([2]; 40 μg peptide, Fraction No. 3): 2082 cpm
Radioactivity in 50 μl ([2]; 60 μg peptide, Fraction No. 1): 4492 cpm
Recovery ([2]; 60 μg peptide, Fraction No. 1): 75.5%
Radioactivity in 300 μl ([2]; 60 μg peptide, Fraction No. 1): 26952 cpm
Radioactivity in 50 μl ([2]; 60 μg peptide, Fraction No. 2): 1107 cpm
Recovery ([2]; 60 μg peptide, Fraction No. 2): 18.6%
Radioactivity in 300 μl ([2]; 60 μg peptide, Fraction No. 2): 6642 cpm
Radioactivity in 50 μl ([2]; 60 μg peptide, Fraction No. 3): 354 cpm
Recovery ([2]; 60 μg peptide, Fraction No. 3): 5.9%
Radioactivity in 300 μl ([2]; 60 μg peptide, Fraction No. 3): 2124 cpm
Radioactivity in 50 μl ([2]; 80 μg peptide, Fraction No. 1): 4715 cpm
Recovery ([2]; 80 μg peptide, Fraction No. 1): 60%
Radioactivity in 300 μl ([2]; 80 μg peptide, Fraction No. 1): 28290 cpm
Radioactivity in 50 μl ([2]; 80 μg peptide, Fraction No. 2): 2251 cpm
Recovery ([2]; 80 μg peptide, Fraction No. 2): 28.6%
Radioactivity in 300 μl ([2]; 80 μg peptide, Fraction No. 2): 13506 cpm
Radioactivity in 50 μl ([2]; 80 μg peptide, Fraction No. 3): 851 cpm
Recovery ([2]; 80 μg peptide, Fraction No. 3): 11.3%
Radioactivity in 300 μl ([2]; 80 μg peptide, Fraction No. 3): 5346 cpm
Radioactivity in 50 μl ([2]; 100 μg peptide, Fraction No. 1): 5424 cpm
Recovery ([2]; 100 μg peptide, Fraction No. 1): 67.5%
Radioactivity in 300 μl ([2]; 100 μg peptide, Fraction No. 1): 32544 cpm
Radioactivity in 50 μl ([2]; 100 μg peptide, Fraction No. 2): 1708 cpm
Recovery ([2]; 100 μg peptide, Fraction No. 2): 21.2%
Radioactivity in 300 μl ([2]; 100 μg peptide, Fraction No. 2): 10248 cpm
Radioactivity in 50 μl ([2]; 100 μg peptide, Fraction No. 3): 907 cpm
Recovery ([2]; 100 μg peptide, Fraction No. 3): 11.3%
Radioactivity in 300 μl ([2]; 100 μg peptide, Fraction No. 3): 5442 cpm
